The text below walks through data of patent publication US20140087995A1 (published 2014).

Read-outs that look alike come from different tables or passages of the source. Numbered stars: 1 amine (or outer) side, 2 acyl side, 3 side chain; on linkers, the order of the positions; unused ones are H or OH. Bridge positions count the residues as written; N and C are the ends. Side chains are listed from the residue outwards. Ends that are not written are not given here. * marks the point of attachment. C20 diacid = O=C(O)CCCCCCCCCCCCCCCCCCC(=O)*; γGlu = O=C(O)[C@H](CCC(=O)[*:2])N[*:1]; AEEA = NCCOCCOCC(=O)O

Test [1] has as its target T1, human amylin receptor (amylin 3(a) receptor: human calcitonin receptor plus RAMP-3) (human, UniProt P30988 25-474; O60896 24-148).
T1 construct: whole, on cells; functional assay used the whole cells; also called hAmylin-R; hAmylinR
T1 sequence (looked up) 1: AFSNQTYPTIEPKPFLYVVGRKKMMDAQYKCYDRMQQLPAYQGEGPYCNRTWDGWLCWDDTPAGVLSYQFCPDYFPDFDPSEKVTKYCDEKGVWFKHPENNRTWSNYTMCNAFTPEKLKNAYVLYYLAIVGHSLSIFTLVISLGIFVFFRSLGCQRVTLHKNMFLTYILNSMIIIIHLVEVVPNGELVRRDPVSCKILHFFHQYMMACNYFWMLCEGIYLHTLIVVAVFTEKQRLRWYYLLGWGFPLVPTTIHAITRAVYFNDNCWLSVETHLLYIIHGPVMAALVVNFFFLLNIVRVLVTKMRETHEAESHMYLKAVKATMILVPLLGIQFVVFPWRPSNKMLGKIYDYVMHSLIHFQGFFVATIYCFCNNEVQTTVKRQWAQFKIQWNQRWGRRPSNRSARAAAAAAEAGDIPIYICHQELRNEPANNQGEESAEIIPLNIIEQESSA
T1 sequence (looked up) 2: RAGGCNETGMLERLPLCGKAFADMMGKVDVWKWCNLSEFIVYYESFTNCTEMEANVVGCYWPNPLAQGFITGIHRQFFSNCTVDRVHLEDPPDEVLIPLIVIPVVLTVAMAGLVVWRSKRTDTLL
Briefly: SPA competition, displacement of 125I-rat amylin from membranes of BHK cells with human calcitonin receptor + RAMP-3 (Assay V). On the procedure:
(§1) The binding assay was performed using scintillation proximity assay (SPA) beads (RPNQ0001) from PerkinElmer and cell membranes from the Amylin 3(a)/CRE-luc cells (as described in Assay (II)) were used. Membranes were prepared in the following way; the cells were rinsed with PBS and incubated with Versene for approximately 5 min before harvesting. The cells were flushed with PBS and the cell-suspension was centrifuged for 5 min at 1000 rpm. Cells were homogenized (ultrathurrax) in a buffer containing 20 mM Na-HEPES and 10 mM EDTA (pH 7.4) and centrifuged at 20.000 rpm for 15 min. The resulting pellet was resuspended, homogenized and centrifuged (20.000 rpm, 15 min) in a buffer containing 20 mM Na-HEPES and 0.1 mM EDTA (pH 7.4, buffer 2). The resulting pellet was resuspended in buffer 2 and protein concentration was measured (BCA protein Assay, Pierce). The homogenate was kept cold during the whole procedure. The membranes were kept at −80° C. until use. The assay was performed in a 384 well Optiplate (PerkinElmer) in a total volume of 40 ul. Membranes were mixed with SPA beads. Final concentration of membranes 35 ng/μL final and SPA beads was 0.05 mg/well. Test-compounds were dissolved in DMSO and further diluted in assay buffer (50 mM Hepes, pH 7.4, 1 mM CaCl2, 5 mM MgCl₂, 0.1% OA and 0.02% Tween20). […] The final mixture was incubated with shaking at 400 rpm for 120 min at 25° C. prior to centrifugation (1500 rpm, 10 min). Samples were analyzed on TopCounter™ (Packard). The IC₅₀ was calculated using (one site binding competition analysis) GraphPad Prism5 as a measure of receptor affinity.
For orientation: Displacement assays read how much labelled ligand stays bound in the presence of the test substance.

Test [2] concerns the target T2, human calcitonin receptor (human, UniProt P30988 25-474).
T2 sequence (looked up): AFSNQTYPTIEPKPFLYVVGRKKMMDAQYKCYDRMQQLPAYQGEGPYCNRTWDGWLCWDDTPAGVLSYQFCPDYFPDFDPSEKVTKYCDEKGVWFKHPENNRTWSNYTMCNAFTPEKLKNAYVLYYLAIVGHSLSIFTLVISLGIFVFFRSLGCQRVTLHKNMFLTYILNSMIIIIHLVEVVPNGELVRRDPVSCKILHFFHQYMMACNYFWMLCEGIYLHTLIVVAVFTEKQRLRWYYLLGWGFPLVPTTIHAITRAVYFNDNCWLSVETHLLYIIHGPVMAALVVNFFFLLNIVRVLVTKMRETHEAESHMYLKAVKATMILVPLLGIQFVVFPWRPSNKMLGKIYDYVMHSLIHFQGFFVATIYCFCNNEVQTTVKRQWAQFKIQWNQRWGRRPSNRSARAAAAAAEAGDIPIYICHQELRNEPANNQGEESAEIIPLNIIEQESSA
Description: cell-based or functional assay.

Test [3] addresses T1, human amylin receptor (amylin 3(a) …). Description: cell-based or functional assay.
The target in test [4] is T2, human calcitonin receptor. Description: cell-based or functional assay. The source holds these as a separate data set.
Test [5] deals with T1, human amylin receptor (amylin 3(a) …). Description: cell-based or functional assay. This is another data set of the same source.
Test [6] has the same target. Briefly: SPA competition, displacement of 125I-rat amylin from membranes of BHK cells with human calcitonin receptor + RAMP-3 (Assay V). As for the experimental part:
as §1
This is another data set of the same source.

B1: N^ε-[2-[2-[2-[[(4S)-4-carboxy-4-(19-carboxynonadecanoylamino)butanoyl]amino]ethoxy]ethoxy]acetyl]Lys[Arg1,Arg17,Pro21,Pro27,His35]-h-amylin (peptide)
peptide: K([AEEA-γGlu-C20 diacid])RCNTATCATQRLANFLRHSSPNFGAIPSSTNVGSHTY-NH2
modifications: disulfide 3-8; N-terminus assumed
SMILES: CC[C@H](C)[C@H](NC(=O)[C@H](C)NC(=O)CNC(=O)[C@H](Cc1ccccc1)NC(=O)[C@H](CC(N)=O)NC(=O)[C@@H]1CCCN1C(=O)[C@H](CO)NC(=O)[C@H](CO)NC(=O)[C@H](Cc1c[nH]cn1)NC(=O)[C@H](CCCNC(=N)N)NC(=O)[C@H](CC(C)C)NC(=O)[C@H](Cc1ccccc1)NC(=O)[C@H](CC(N)=O)NC(=O)[C@H](C)NC(=O)[C@H](CC(C)C)NC(=O)[C@H](CCCNC(=N)N)NC(=O)[C@H](CCC(N)=O)NC(=O)[C@@H](NC(=O)[C@H](C)NC(=O)[C@@H]1CSSC[C@H](NC(=O)[C@H](CCCNC(=N)N)NC(=O)[C@@H](N)CCCCNC(=O)COCCOCCNC(=O)CC[C@H](NC(=O)CCCCCCCCCCCCCCCCCCC(=O)O)C(=O)O)C(=O)N[C@@H](CC(N)=O)C(=O)N[C@@H]([C@@H](C)O)C(=O)N[C@@H](C)C(=O)N[C@@H]([C@@H](C)O)C(=O)N1)[C@@H](C)O)C(=O)N1CCC[C@H]1C(=O)N[C@@H](CO)C(=O)N[C@@H](CO)C(=O)N[C@H](C(=O)N[C@@H](CC(N)=O)C(=O)N[C@H](C(=O)NCC(=O)N[C@@H](CO)C(=O)N[C@@H](Cc1c[nH]cn1)C(=O)N[C@H](C(=O)N[C@@H](Cc1ccc(O)cc1)C(N)=O)[C@@H](C)O)C(C)C)[C@@H](C)O
notes: N-terminal extension by Lys at position -1; also called compound 45
For the molecule B1, the IC50 in test [1] and in test [6] was 552 pM each time. The “hCTR funct. EC50 (pM)” value in test [2] and in test [4] was 10100 pM throughout. In addition, the “Ratio hCT/hAmylin funct.” value in test [3] and in test [5] was 17 in each case. In addition, the “hAmylin-R funct. EC50 (pM)” value in test [3] and in test [5] was 594 pM in each case.

B2: N^ε-[(4S)-4-carboxy-4-(19-carboxynonadecanoylamino)butanoyl]Lys[Arg1,Arg17,Pro21,Pro27,His35]-h-amylin (peptide)
peptide: K([γGlu-C20 diacid])RCNTATCATQRLANFLRHSSPNFGAIPSSTNVGSHTY-NH2
modifications: disulfide 3-8; N-terminus assumed
SMILES: CC[C@H](C)[C@H](NC(=O)[C@H](C)NC(=O)CNC(=O)[C@H](Cc1ccccc1)NC(=O)[C@H](CC(N)=O)NC(=O)[C@@H]1CCCN1C(=O)[C@H](CO)NC(=O)[C@H](CO)NC(=O)[C@H](Cc1c[nH]cn1)NC(=O)[C@H](CCCNC(=N)N)NC(=O)[C@H](CC(C)C)NC(=O)[C@H](Cc1ccccc1)NC(=O)[C@H](CC(N)=O)NC(=O)[C@H](C)NC(=O)[C@H](CC(C)C)NC(=O)[C@H](CCCNC(=N)N)NC(=O)[C@H](CCC(N)=O)NC(=O)[C@@H](NC(=O)[C@H](C)NC(=O)[C@@H]1CSSC[C@H](NC(=O)[C@H](CCCNC(=N)N)NC(=O)[C@@H](N)CCCCNC(=O)CC[C@H](NC(=O)CCCCCCCCCCCCCCCCCCC(=O)O)C(=O)O)C(=O)N[C@@H](CC(N)=O)C(=O)N[C@@H]([C@@H](C)O)C(=O)N[C@@H](C)C(=O)N[C@@H]([C@@H](C)O)C(=O)N1)[C@@H](C)O)C(=O)N1CCC[C@H]1C(=O)N[C@@H](CO)C(=O)N[C@@H](CO)C(=O)N[C@H](C(=O)N[C@@H](CC(N)=O)C(=O)N[C@H](C(=O)NCC(=O)N[C@@H](CO)C(=O)N[C@@H](Cc1c[nH]cn1)C(=O)N[C@H](C(=O)N[C@@H](Cc1ccc(O)cc1)C(N)=O)[C@@H](C)O)C(C)C)[C@@H](C)O
notes: N-terminal extension by Lys at position -1; also called compound 44
Take B2: the IC50 in test [1] and in test [6] was 275 pM each time. Besides, the “hCTR funct. EC50 (pM)” value in test [2] and in test [4] was 4750 pM each time. Besides, the “Ratio hCT/hAmylin funct.” value in test [3] and in test [5] was 24 in each case. The “hAmylin-R funct. EC50 (pM)” value in test [3] and in test [5] was 198 pM throughout.

B3: N^ε1-[(4S)-4-carboxy-4-(19-carboxynonadecanoylamino)butanoyl]-[Glu14,Arg17,Pro21,Pro27,His35]-h-amylin (peptide)
peptide: K([γGlu-C20 diacid])CNTATCATQRLAEFLRHSSPNFGAIPSSTNVGSHTY-NH2
modifications: disulfide 2-7; N-terminus assumed
SMILES: CC[C@H](C)[C@H](NC(=O)[C@H](C)NC(=O)CNC(=O)[C@H](Cc1ccccc1)NC(=O)[C@H](CC(N)=O)NC(=O)[C@@H]1CCCN1C(=O)[C@H](CO)NC(=O)[C@H](CO)NC(=O)[C@H](Cc1c[nH]cn1)NC(=O)[C@H](CCCNC(=N)N)NC(=O)[C@H](CC(C)C)NC(=O)[C@H](Cc1ccccc1)NC(=O)[C@H](CCC(=O)O)NC(=O)[C@H](C)NC(=O)[C@H](CC(C)C)NC(=O)[C@H](CCCNC(=N)N)NC(=O)[C@H](CCC(N)=O)NC(=O)[C@@H](NC(=O)[C@H](C)NC(=O)[C@@H]1CSSC[C@H](NC(=O)[C@@H](N)CCCCNC(=O)CC[C@H](NC(=O)CCCCCCCCCCCCCCCCCCC(=O)O)C(=O)O)C(=O)N[C@@H](CC(N)=O)C(=O)N[C@@H]([C@@H](C)O)C(=O)N[C@@H](C)C(=O)N[C@@H]([C@@H](C)O)C(=O)N1)[C@@H](C)O)C(=O)N1CCC[C@H]1C(=O)N[C@@H](CO)C(=O)N[C@@H](CO)C(=O)N[C@H](C(=O)N[C@@H](CC(N)=O)C(=O)N[C@H](C(=O)NCC(=O)N[C@@H](CO)C(=O)N[C@@H](Cc1c[nH]cn1)C(=O)N[C@H](C(=O)N[C@@H](Cc1ccc(O)cc1)C(N)=O)[C@@H](C)O)C(C)C)[C@@H](C)O
On to B3, for which the IC50 in test [1] and in test [6] was 992 pM each time. The “hCTR funct. EC50 (pM)” value in test [2] and in test [4] was 5580 pM in each case. Besides, the “hAmylin-R funct. EC50 (pM)” value in test [3] and in test [5] was 425 pM each time.

In the case of K([γGlu-γGlu-C20 diacid])CNTATCATQRLAEFLRHSSPNFGAIPSSTNVGPHTY-NH2 (disulfide 2-7 (inferred)), the IC50 in test [1] and in test [6] was 377 pM throughout. Further, the “hCTR funct. EC50 (pM)” value in test [2] and in test [4] was 2830 pM in each case. Besides, the “hAmylin-R funct. EC50 (pM)” value in test [3] and in test [5] was 172 pM in each case.
